Experimental data published in US20230357444A1 (published 2023).

B1: EGFR-21-63 LH × A2J HLP (bispecific antibody)
chain: DIVLTQSPASLPVSLGQRATISCRASQSVSSSTYSYIHWYQQKPGQPPKLLITYASNLESGVPARFSGSGSGTDFTLDIHPVEEDDSSTYYCQHSWEIPFTFGSGTKLEIKGGGGSGGGGSGGGGSQVQLQQSGPDLVKPGASVKMSCKASGHTFTDCVIIWVKQRAGQGLEWIGQIYPGTGRSYYNEIFKGKATLTADKSSNTVHIQLSSLTSEDSAVYFCALSTLIHGTWFSYWGQGTLVTVSSGGGGSEVQLLESGGGLVQPGGSLKLSCAASGFTFNVYAMNWVRQAPGKGLEWVARIRSKYNNYATYYADSVKKRFTISRDDSKNTAYLQMNNLKTEDTAVYYCVRHGNFGNSYLSWWAYWGQGTLVTVSSGGGGSGGGGSGGGGSELVVTQEPSLTVSPGGTVTLTCRSSTGAVTSGYYPNWVQQKPGQAPRGLIGATDMRPSGTPARFSGSLLGGKAALTLSGVQPEDEAEYYCALWYSNRWVFGGGTKLTVLHHHHHH
notes: also called EGFR LH × A2J HLP
B2: EGFR-21-63 LH × E2M HLP (bispecific antibody)
chain: DIVLTQSPASLPVSLGQRATISCRASQSVSSSTYSYIHWYQQKPGQPPKLLITYASNLESGVPARFSGSGSGTDFTLDIHPVEEDDSSTYYCQHSWEIPFTFGSGTKLEIKGGGGSGGGGSGGGGSQVQLQQSGPDLVKPGASVKMSCKASGHTFTDCVIIWVKQRAGQGLEWIGQIYPGTGRSYYNEIFKGKATLTADKSSNTVHIQLSSLTSEDSAVYFCALSTLIHGTWFSYWGQGTLVTVSSGGGGSEVQLLESGGGLVQPGGSLKLSCAASGFTFNGYAMNWVRQAPGKGLEWVARIRSKYNNYATYYADSVKERFTISRDDSKNTAYLQMNNLKTEDTAVYYCVRHRNFGNSYLSWFAYWGQGTLVTVSSGGGGSGGGGSGGGGSELVVTQEPSLTVSPGGTVTLTCRSSTGAVTSGYYPNWVQQKPGQAPRGLIGATDMRPSGTPARFSGSLLGGKAALTLSGVQPEDEAEYYCALWYSNRWVFGGGTKLTVLHHHHHH
notes: also called EGFR LH × E2M HLP
B3: MCSP-G4 HLP × E2M HLP (bispecific antibody)
chain: QVQLVQSGAEVKRPGASMKVSCKASGYTFTNYYIHWVRQAPGQGLEWMGWINPNSGATNYAQKFQGRVTMTRDTSTSTVYMELSSLRSEDTAVYYCAKSWVSWFASWGQGTLVTVSSGGGGSGGGGSGGGGSELVMTQSPDSLAVSLGERATINCKSSQSVLNSSNNRNYLAWYQQKPGQPPKLLIYWASTRESGVPDRFSGSGSGTDFTLTISGLQAEDVAVYYCQQHYSTPFTFGPGTKVDIKSGGGGSEVQLLESGGGLVQPGGSLKLSCAASGFTFNGYAMNWVRQAPGKGLEWVARIRSKYNNYATYYADSVKERFTISRDDSKNTAYLQMNNLKTEDTAVYYCVRHRNFGNSYLSWFAYWGQGTLVTVSSGGGGSGGGGSGGGGSELVVTQEPSLTVSPGGTVTLTCRSSTGAVTSGYYPNWVQQKPGQAPRGLIGATDMRPSGTPARFSGSLLGGKAALTLSGVQPEDEAEYYCALWYSNRWVFGGGTKLTVLHHHHHH

What was measured:
[1] = target: T1, 1-27 CD3-Fc (N-terminal amino acids 1-27 of the mature human CD3 epsilon chain fused to the hinge and Fc … (human)); test: SPR (Biacore), 1-27 CD3-Fc immobilised
T1 construct: The construct was made with a 19 aa immunoglobulin leader; also called 27 aa huCD3E; human CD3 epsilon (aa 1-27)-Fc fusion protein

[2] = target: T2, human CD3 (native CD3 complex on human T cells) (human, UniProt P07766 23-207); test: FACS, HPB-ALL
T2 construct: whole, on cells; also called human CD3+ T cell line HPB-ALL; human CD3 positive PBMC
T2 sequence (P07766 23-207, one chain of several): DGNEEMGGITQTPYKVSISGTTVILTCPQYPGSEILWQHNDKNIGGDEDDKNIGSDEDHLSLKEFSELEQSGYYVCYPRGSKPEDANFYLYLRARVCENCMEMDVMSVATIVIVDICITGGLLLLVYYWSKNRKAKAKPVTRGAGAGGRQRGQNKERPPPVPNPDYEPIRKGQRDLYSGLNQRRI

| Binder | Kd [1] | binding result [2] |
| --- | --- | --- |
| B1 | 249 nM |  |
| B2 | 2460 nM |  |
| B3 |  | binds |
